Test [1] addresses IL-2Rαβ subunits on U2OS cells. As to the kind of experiment: cell-based or functional assay.
Test [2] has as its target IL-2Rβγ subunits on U2OS cells. As to the kind of experiment: cell-based or functional assay.
The target in test [3] is Rhesus IL-2Rα, polyhistidine-tagged (rhesus) (UniProt Q5MNY4). The test can be described thus: SPR (Biacore T200), His-tagged receptor. For orientation: In SPR one partner is held on a chip, and binding of the other changes the refractive index at the surface.
Test [4] addresses Human IL-2Rα, polyhistidine-tagged (human) (UniProt P01589). The test can be described thus: SPR (Biacore T200), His-tagged receptor.
Test [5] concerns the target Human IL-2Rβ, polyhistidine-tagged (human) (UniProt P14784). As to the kind of experiment: SPR (Biacore T200), His-tagged receptor.
Test [6] has as its target Rat IL-2Rα, polyhistidine-tagged (rat) (UniProt P26897). As to the kind of experiment: SPR (Biacore T200), His-tagged receptor.
The target in test [7] is Mouse IL-2Rα, polyhistidine-tagged (mouse) (UniProt P01590). As to the kind of experiment: SPR (Biacore T200), His-tagged receptor.
The target in test [8] is Cynomolgus IL-2Rα, polyhistidine-tagged (cynomolgus) (UniProt H6WS54). The test can be described thus: SPR (Biacore T200), His-tagged receptor.
Test [9] concerns the target Cynomolgus/Rhesus IL-2Rβ, polyhistidine-tagged (cynomolgus/rhesus) (UniProt Q38J85). The test can be described thus: SPR (Biacore T200), His-tagged receptor.
Test [10] concerns the target Human IL-2Rβγ on CD8+ T and NK cells in whole blood (human) (UniProt P14784).
Test [11] shares this target. The source holds these as a separate data set.
For test [12], the target named is Rhesus IL-2Rβγ on CD8+ T and NK cells in whole blood (rhesus monkey).
Test [13] deals with Human IL-2Rβ, polyhistidine-tagged (human) (UniProt P14784). As to the kind of experiment: SPR (Biacore T200), ratio to human IL-2Rβ.
Test [14] concerns the target Cynomolgus/Rhesus IL-2Rβ, polyhistidine-tagged (cynomolgus/rhesus) (UniProt Q38J85). The test can be described thus: SPR (Biacore T200), ratio to human IL-2Rβ.
Test [15] has as its target Rhesus IL-2Rβγ on CD8+ T and NK cells in whole blood (rhesus monkey). The source holds these as a separate data set.
Test [16] deals with Rhesus IL-2Rα, polyhistidine-tagged (rhesus) (UniProt Q5MNY4). The test can be described thus: SPR (Biacore T200), ratio to human IL-2Rα.
In test [17] the target is Human IL-2Rα, polyhistidine-tagged (human) (UniProt P01589). As to the kind of experiment: SPR (Biacore T200), ratio to human IL-2Rα.
The target of test [18] is Rat IL-2Rα, polyhistidine-tagged (rat) (UniProt P26897). As to the kind of experiment: SPR (Biacore T200), ratio to human IL-2Rα.
The target in test [19] is Mouse IL-2Rα, polyhistidine-tagged (mouse) (UniProt P01590). The test can be described thus: SPR (Biacore T200), ratio to human IL-2Rα.
In test [20] the target is Cynomolgus IL-2Rα, polyhistidine-tagged (cynomolgus) (UniProt H6WS54). The test can be described thus: SPR (Biacore T200), ratio to human IL-2Rα.

The term Kd denotes the equilibrium constant for the complex coming apart. The low end stands for higher affinity, the high end for lower affinity.

Chain of Rhesus IL-2Rα, polyhistidine-tagged (rhesus) (Q5MNY4 22-240 limits assumed): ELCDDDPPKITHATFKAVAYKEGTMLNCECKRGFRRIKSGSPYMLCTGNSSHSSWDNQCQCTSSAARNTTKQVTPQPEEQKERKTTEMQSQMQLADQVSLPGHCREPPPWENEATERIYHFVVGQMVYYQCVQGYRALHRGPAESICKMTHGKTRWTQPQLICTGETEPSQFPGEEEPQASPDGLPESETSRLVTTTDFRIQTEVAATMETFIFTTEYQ
Chain of Human IL-2Rβ, polyhistidine-tagged (human) (P14784 27-239 limits assumed): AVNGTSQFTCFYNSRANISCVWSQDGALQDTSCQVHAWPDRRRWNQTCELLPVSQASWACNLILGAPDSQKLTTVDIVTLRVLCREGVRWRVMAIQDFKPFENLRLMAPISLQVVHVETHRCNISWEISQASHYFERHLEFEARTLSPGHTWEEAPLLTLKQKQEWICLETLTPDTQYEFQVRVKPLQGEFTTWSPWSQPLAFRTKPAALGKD
Chain of Rat IL-2Rα, polyhistidine-tagged (rat) (P26897 22-235 limits assumed): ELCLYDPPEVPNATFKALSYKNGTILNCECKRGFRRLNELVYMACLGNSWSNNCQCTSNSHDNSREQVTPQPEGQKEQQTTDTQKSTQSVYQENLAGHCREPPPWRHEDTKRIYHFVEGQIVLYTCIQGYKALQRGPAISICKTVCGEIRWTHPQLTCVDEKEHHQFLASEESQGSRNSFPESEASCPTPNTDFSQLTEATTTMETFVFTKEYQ
Chain of Mouse IL-2Rα, polyhistidine-tagged (mouse) (P01590 22-236 limits assumed): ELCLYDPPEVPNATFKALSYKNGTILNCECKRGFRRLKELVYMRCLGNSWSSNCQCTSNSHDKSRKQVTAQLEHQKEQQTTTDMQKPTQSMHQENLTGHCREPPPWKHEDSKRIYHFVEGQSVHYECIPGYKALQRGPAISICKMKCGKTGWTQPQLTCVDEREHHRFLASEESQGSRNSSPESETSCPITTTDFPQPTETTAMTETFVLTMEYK
Chain of Human IL-2Rβγ on CD8+ T and NK cells in whole blood (human) (P14784 27-551, chain 1 of 2): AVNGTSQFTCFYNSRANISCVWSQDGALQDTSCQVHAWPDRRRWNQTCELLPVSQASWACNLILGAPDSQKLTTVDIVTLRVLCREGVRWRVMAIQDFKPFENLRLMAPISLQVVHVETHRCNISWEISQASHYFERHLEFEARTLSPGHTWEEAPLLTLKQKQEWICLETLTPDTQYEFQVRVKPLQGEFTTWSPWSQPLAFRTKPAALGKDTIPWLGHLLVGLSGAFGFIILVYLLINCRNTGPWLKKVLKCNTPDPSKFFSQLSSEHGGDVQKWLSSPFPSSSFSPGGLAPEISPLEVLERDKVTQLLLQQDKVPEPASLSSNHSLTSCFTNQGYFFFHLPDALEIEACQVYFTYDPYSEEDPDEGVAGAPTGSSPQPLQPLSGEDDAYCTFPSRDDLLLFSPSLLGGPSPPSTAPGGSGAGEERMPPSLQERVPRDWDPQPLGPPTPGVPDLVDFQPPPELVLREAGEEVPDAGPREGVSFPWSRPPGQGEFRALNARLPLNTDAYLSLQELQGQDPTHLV
Chain of Human IL-2Rβγ on CD8+ T and NK cells in whole blood (human) (P31785 23-369, chain 2 of 2, further chain): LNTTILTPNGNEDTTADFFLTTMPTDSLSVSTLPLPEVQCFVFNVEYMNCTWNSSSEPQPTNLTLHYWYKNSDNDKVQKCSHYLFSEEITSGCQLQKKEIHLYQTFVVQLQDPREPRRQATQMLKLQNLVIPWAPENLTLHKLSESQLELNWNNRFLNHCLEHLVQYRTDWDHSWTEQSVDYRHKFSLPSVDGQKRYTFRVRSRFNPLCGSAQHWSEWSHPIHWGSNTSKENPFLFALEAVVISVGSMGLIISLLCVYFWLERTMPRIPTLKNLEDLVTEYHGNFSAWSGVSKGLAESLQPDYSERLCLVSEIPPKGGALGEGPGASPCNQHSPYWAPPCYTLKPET
Chain of Human IL-2Rα, polyhistidine-tagged (human) (P01589 22-213 limits assumed): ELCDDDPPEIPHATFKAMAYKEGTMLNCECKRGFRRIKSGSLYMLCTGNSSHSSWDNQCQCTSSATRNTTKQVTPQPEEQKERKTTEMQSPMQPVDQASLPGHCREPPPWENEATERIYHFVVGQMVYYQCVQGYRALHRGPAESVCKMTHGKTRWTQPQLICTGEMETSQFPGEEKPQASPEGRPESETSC
Chain of Cynomolgus/Rhesus IL-2Rβ, polyhistidine-tagged (cynomolgus/rhesus) (Q38J85 27-240 limits assumed): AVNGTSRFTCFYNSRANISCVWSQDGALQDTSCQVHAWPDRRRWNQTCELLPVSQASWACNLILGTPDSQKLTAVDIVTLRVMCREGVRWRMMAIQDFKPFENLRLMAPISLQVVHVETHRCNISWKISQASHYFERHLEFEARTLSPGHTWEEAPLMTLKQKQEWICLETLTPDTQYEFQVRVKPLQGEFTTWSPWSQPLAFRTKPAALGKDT

Substance R38Q/Y45F-IL-2 Fc, bivalent (Fc fusion) displayed an Ave. EC50 of engaging IL-2Rαβ subunits (receptor engagement study, N = 3) in [1] of 7 nM. In [2], this substance registered an Ave. EC50 of engaging IL-2Rβγ subunits (receptor engagement study, N = 3) of 3.5 nM.

In turn, “R38Q/Y45F-IL-2 Fc, monovalent (from UniProt P01857 104-329) (Fc fusion)” returned an Ave. EC50 of engaging IL-2Rαβ subunits (receptor engagement study, N = 3) in test [1] of 400 nM. The Ave. EC50 of engaging IL-2Rβγ subunits (receptor engagement study, N = 3) in test [2] stood at 2 nM.

Regarding “WT-IL-2 Fc (from UniProt P01857 104-329) (Fc fusion)”, the Kd in test [3] is 49 nM; in [4] it was 28 nM; in test [5], 940 nM; in test [6], 87 nM; in test [7] it was 29 nM; in test [8], 30 nM. Further, the Kd in test [9] worked out at 1300 nM. This substance gave an EC50; pSTAT5 normalized gMFI in NK cells, human whole blood (Hu donor 2), flow cytometry in [10] of 0.35 nM. In addition, the EC50; pSTAT5 normalized gMFI in CD8 cells, human whole blood (Hu donor 2), flow cytometry in test [11] is 0.00141 µM. Also, the EC50; pSTAT5 normalized gMFI in NK cells, rhesus whole blood (Rh donor 20-1068), flow cytometry in test [12] came to 0.00244 µM. Besides, the KD/KD (hu) in test [13] came to 1; in test [14] it was 1.4; in test [16], 1.8; in [17], 1; in [18], 3.1; in test [19], 1. In addition, the KD/KD (hu) in test [20] came to 1.1. In test [15], the EC50; pSTAT5 normalized gMFI in CD8 cells, rhesus whole blood (Rh donor 20-1068), flow cytometry came out at 0.00405 µM.

In the case of Y45R-IL-2 Fc, bivalent (Fc fusion), in test [1], the Ave. EC50 of engaging IL-2Rαβ subunits (receptor engagement study, N = 3) came out at 30 nM. In test [2], this substance showed an Ave. EC50 of engaging IL-2Rβγ subunits (receptor engagement study, N = 3) of 2.3 nM.

Source of the values: patent US20240309061A1.
